The values below come from paper PMC3142331 (Molecular cell, 2011).

Square brackets hold non-standard residues; d marks the D form. Ends that are not written are not given here. fluorescein = fluorescein label (fluorescent) on the peptide N-terminus; pS = N[C@@H](COP(=O)(O)O)C(=O)O

In assay [1] the target is tetraheptad CTD-Ser5-PO4 peptide (phosphorylated at Ser5 (CTD-Ser5-PO4)). Nature of the assay: cell-based or functional assay.
The target of assay [2] is T1, fluorescein labeled phosphorylated CTD peptide (Fluor-S2P3T4S5PP6S7Y1S2PP3T4S5).
T1 peptide: fluorescein-SPT[pS]PSY[pS]PTS
In words: fluorescence polarisation. Background: Fluorescence polarisation rises when a labelled molecule tumbles more slowly, as on binding a larger partner.

B1: Mce R330A (domain or fragment)
chain: not shown
Turning to B1, the “fold stimulation of guanylylation by CTD Ser5-PO4” value (shortened to “fold stimulation … by CTD Ser5-PO4”) in assay [1] came out at 2.1 fold.

B2: Mce-K294A (domain or fragment)
chain: not shown
Take B2: the “fold reduction of affinity against wild-type Mce” value in assay [2] was about 1.8 fold.

B3: Mce R330A/K331A/R386A (domain or fragment)
chain: not shown
For B3, the “fold stimulation … by CTD Ser5-PO4” value in assay [1] worked out at 1.6 fold.

B4: Mce R330A/K331A (domain or fragment)
chain: not shown
On to B4, for which the “fold stimulation … by CTD Ser5-PO4” value in assay [1] was 1.9 fold.

B5: Mce-C375R (domain or fragment)
chain: not shown
Regarding B5, the “fold stimulation of guanylylation in the presence of CTD Ser5-PO4” value in assay [1] turned out to be 5.9 fold.

B6: Mce C383Y (domain or fragment)
chain: not shown
Turning to B6, the “fold decrease in affinity against wild-type Mce” value in assay [2] was 1.9 fold.
